Measurements taken from the nanobody polyreactivity screen of Harvey et al. (2022).

Assay: yeast display, Sf9 membrane polyspecificity reagent, FACS + sequencing; frameworks hold sequencing errors
In short: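 Nanobodies from a synthetic yeast display library (Saccharomyces cerevisiae BJ5465), induced 36–48 hours with galactose, were stained 1 hour at 4 °C with 10% biotinylated, detergent-solubilized Sf9 membrane reagent, enriched on streptavidin microbeads, then FACS-sorted. Anti-HA (expression) and streptavidin (reagent binding) fluorescence set low and high (top ~1%) gates. Polyreactivity labels come from the gate of origin. Genes were colony-PCR amplified, MiSeq 2 × 250 sequenced and filtered by CDR length.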

Sequence	polyreactivity (PSR sort gate)
QVQLVESGGGLVQAGGSLRLICAASGFTLDWYVMGWYRQAPGKERELVAAISSSGGRTYYADSVKGRFTISRDNEKNTVYLQMNSLKPEDPAVYYCAARNKYGGYPYGYDYWGQGTQVTVSS	high polyreactivity
QVQLVESGGGLVQAGGSLRLICAASGFTLRHYAMGWSRQAPGKERELVAAITKSGSSTYYADSVKGRFTISRDNAKNTVYLQMNSLKPEDTAVYYCAKKTSYSYAFRYDYWGQGTQVTVSS	high polyreactivity
QVQLVESGGGLVQAGGSLRLICAASGGIFPTYDMVWYRQAPGKERELVAAIDRNGTSTTYSDSVKGRFTISRDNAKNTVYLQMNSLKPEDTEVYYCAAGYNDQTSAYDYWGHGTQVTVSS	low polyreactivity
QVQLVESGGGLVQAGGSLRLICAASGGIFWYYAMGWYRQAPGKERELVATISSGGSTKYADSVKGRFTISRDNAKNTVYLQMNSLKPEDTAVYYCNKVFPNLYIYVVRGLIEMDYWGQGTQVTVSS	low polyreactivity
QVQLVESGGGLVQAGGSLRLICAASGGIIYWNAMGWYRQAPGKERELVATITRSGGSTYYADSVKGRFTISRDNAKNTVYLQMNSLKPEDTAVYYCAARSYYRFDYWGQGTQVTVSS	high polyreactivity
QVQLVESGGGLVQAGGSLRLICAASGGPFGYYTMGWYRQAPGKERELVAAISSGGGTDYADSVKGRFTISRDNAKNTVYLQMNSLKPEDTAVYYCNAKWLEWHYVFLPSYTMDYWGQGTQVTVSS	low polyreactivity
QVQLVESGGGLVQAGGSLRLICAASGGTFGRNAMGWYRQAPGKERELVATITRRGGSTYYADSVKGRFTISRDNAKNTVYLQMNSLKPEDTAVYYCNALVTTTPRYDYWGQGTQVTVSS	high polyreactivity
QVQLVESGGGLVQAGGSLRLICAASGGTFNAYAMGWYRQAPGKERELVATISYSGGSTYYADSEKGRFTISRDNAKNTVYLQMNSLKPEDTAVYYCATDVYDSTPFRFDYWGQGTQVTVSS	low polyreactivity
QVQLVESGGGLVQAGGSLRLICAASGIIFHFNDMGWYRQAPGKERELVAAIDSTGSTNYADSVKGRFTISRDNAKNTVYLQMNSLKPEDTAVYYCAVLNHRVDSVLTRYYYWGQGTQVTVSS	low polyreactivity
QVQLVESGGGLVQAGGSLRLICAASGIIFRWYTMGWYRQAPGKERELVAAISTSTGSTYYADSVKGRFTISRDNAKNTVYLQMNSLKPEDTAVYYCAADYAYWNYESYYWGQGTQVTVSS	high polyreactivity
QVQLVESGGGLVQAGGSLRLICAASGITFARNTRGWYRQAPGKERELVAAIDSGGNTYADSVKGRFTISRDNAKNTVYLQMNSLKPEDTAVYYCAVDGGEFSSYGYWGQGTQVTVSS	low polyreactivity
QVQLVESGGGLVQAGGSLRLICAASGITFGCNAMGWYRQAPGKEREFVAAITFSDGSTRYADSVKGRFTISRDNAKNTVYLQMNSLKPEDTAVYYCAADTWSDKYDYWGQGTQVTVSS	low polyreactivity
QVQLVESGGGLVQAGGSLRLICAASGITFWYYAMGWSRQEPGKERELVAAITRRGRTNYADSVKGRFTISRDNAKNTVYLQMNSLKPEVTAVYYCAVDLYSFSPRYYYWGQGTQVSVSS	low polyreactivity
QVQLVESGGGLVQAGGSLRLICAASGITFYYYAMGWYRQAPGKERELVAAISTRSGSTYYADSVKGRFTISRDNAKNTVYLEMNSLKPEDTAVYYCAARYRSAGHRYDYWGQGTQVTVSS	high polyreactivity
QVQLVESGGGLVQAGGSLRLICAASGITIKRSAMGWYRQPPGKEREFVATISQSGTSTYYADSVKGLFTISRDNAKNTVYLQMNSLKPEDTAVYYCAADYIGYWYGYYSWGHGTQVTVSS	low polyreactivity
QVQLVESGGGLVQAGGSLRLICAASGITLYRYAMGWYRQAPGKERELVADISSGGGTTYYADSVKGRFTISRDNAKNTVYLQMNSLKPEDTAVYYCAADYGFRYPLYDYWGQGTQVTVSS	low polyreactivity
QVQLVESGGGLVQAGGSLRLICAASGLIFVRNVMGWYRQAPGKERELVAAINLSTGSTYYADSVKGRFTISRDNAKNTVYLQMNCLKPEDTAVYYCAAEYLYWDDLQDYEYWGQGTQVTVSS	low polyreactivity
QVQLVESGGGLVQAGGSLRLICAASGLIFVSYAMGWSRQAPGKERELVAAITYGGDSTFYADSVKGRFTISRDNAKNTVYLQMNSLKPEDTAVYYCNADIWFIWHSFGWGYDYWGQGTQVTVSS	low polyreactivity
QVQLVESGGGLVQAGGSLRLICAASGLTFDVNAMGWYRQAPGKERELVAAITADDGSTYYADSVKGRFTISRDNAKNTVYLQMNSLKPEDTAVYYCNADTRTQGPYSAPYYREMNYWGQGTQVTVSS	low polyreactivity
QVQLVESGGGLVQAGGSLRLICAASGLTFDYYDMGWYRQAPGKERELVASITWRGSSTYYADSVKGRFTISRDNAKNTVYLQMISLKPEDTAVYYCAARYRWSEWRPYYYWGQGTQVTVSS	high polyreactivity
QVQLVESGGGLVQAGGSLRLICAASGLTFYRYAMGWYRQGPGKERELVAGITRRGGSTYYADSVKGRFTISRDKPKNTVYLPMNSLKPEDTAVYYCNVDGISSSYPEMDYWGQGTQVTVSS	low polyreactivity
QVQLVESGGGLVQAGGSLRLICAASGNIFTTYAMGWYRQAPGKERELVAAISRTGGRTSYADSVKGRFTISRDNAKNTVYLQMNSLKPEDTAVYYCAAVPTVRPSAPRARILSDYWGQGTQVTVSS	high polyreactivity

Sequence	polyreactivity (PSR sort gate)
QVQLVESGGGLVQAGGSLRLICAASGNIFVPSAMGWYRQAPGKERELVAAINGGGSTNYADSVKGRFTISRDNAKNTVYIQMISLKPEDTAVNYCAAVWYFLSLWYDYWGQGTQVTVSS	high polyreactivity
QVQLVESGGGLVQAGGSLRLICAASGNTFNFYAMGSYRQAPGKERELVAGISGSNTYYADSVKGRFTISRDNAKNTVYLQMNSLKPEDTAVYYCAKRAIWRYGYWGQGTQVTVSS	high polyreactivity
QVQLVESGGGLVQAGGSLRLICAASGNTFVDYAMGWYRQAPGKELELVAAISRSGGSTYADSVKGRFTISRDNAKNTVYLQMNSLKPEDTAVYYCAAYSGVGYLWFDYWGQGTQVTVSS	low polyreactivity
QVQLVESGGGLVQAGGSLRLICAASGRIFGDNGMGWYTQAPGKERELVTYADSVKGRFTISRDNAKNTVYLQMNSLKPEDTAVYYCNKVPPRFSGLDENYWGQGTQVTVSS	low polyreactivity
QVQLVESGGGLVQAGGSLRLICAASGRIFKLYAMGWYRQAPGKERELVASINSGGGSTNYADSVKGRFTISRDNAKNTVYLQMNSLKPEDPAVYYCAKCYRRVYGPFFYWGQGTQVTVSS	low polyreactivity
QVQLVESGGGLVQAGGSLRLICAASGRIFRYNAMGWYRQAPGKERELVAAISSVGSTNYADSVKGRFTISRDNAKNTVYLQMNSLKPEDTAVYYCNAVVRSYVKTYRYYKVDYWGQGTQVTVSS	high polyreactivity
QVQLVESGGGLVQAGGSLRLICAASGRIFSLYAMGWYRQAPGKERELVAAITWSSGSTYYADSVKGRFTISRDNAKNTVYLQMNSLKPEDTAVYYCNAVWRTRDYDYWGQGTQVTVSS	low polyreactivity
QVQLVESGGGLVQAGGSLRLICAASGRIFYDNALGWYRQAPGKERELVAAISESGTSTYYADSVKGRFTISRDNAKNTVYLQMNSLKPEDTAVYYCAAYFTWNRKVFYYWGQGTQVTVSS	high polyreactivity
QVQLVESGGGLVQAGGSLRLICAASGRIWVNAMGWYIQAPGKQREFVAAISTSSASTYYADSVKGRFTISRDNAKNTVYLQMNSLKPEDTAVYYCAARYLGKKYYYWGQGTQVTVSS	high polyreactivity
QVQLVESGGGLVQAGGSLRLICAASGRPFTYNMGWYRQAPGKERELVAANDLRRLCEGALHNFTRQCEEYRLFTDVQPETGRYPVYYCNADPAWIWYTFDYWGQGTQVTVSS	low polyreactivity
QVQLVESGGGLVQAGGSLRLICAASGRTCRTYTMGLYRQATGKEREFVAAITSSGASTYYADSVKGRFTISRDKAKNTVYLQMNSLKPEDTAVYYCAARPRPRSANGMYYWGQVTQVTVSS	high polyreactivity
QVQLVESGGGLVQAGGSLRLICAASGRTFAYYAMGWYRQAPGKERELVAAISSAGRTYYADSVKGRFTISRDNAKNTVYLHMNSLKPEDTSDYYCAVRWLTQFNGRYGSWGQGTQVTVSS	high polyreactivity
QVQLVESGGGLVQAGGSLRLICAASGRTFGYYTMGWYRPAPGKERELVARINYIGSSTYYADSVKGRFTISRDNAKNTVYLQMNSLKPEDTAVYYCNADNARGRSGVRRYYWGQGTQVTVSS	high polyreactivity
QVQLVESGGGLVQAGGSLRLICAASGRTFPYNAMGWYRQAPGKERELVAAISSGTRTDYADSVKGRFTISRDNAKNTVYLQMNSLKPEDTAVYYCAADYYHYLWRAYGFDYWGQGTQVTVSS	high polyreactivity
QVQLVESGGGLVQAGGSLRLICAASGRTFRYYAMGWYRQAPGKERELVAAISASGGSTFYADSVKGRFTISRDNAKNTVYLQMNSLKPEDTAVYYCAAYHYSVFPYKQYDYWGQGTQVTVSS	high polyreactivity
QVQLVESGGGLVQAGGSLRLICAASGRTFRYYAMGWYRQAPGKERELVASISDGGSTNYADSVKGRFTISRDNAKNTVYLQMNSLKPEDTAVYYCNAKAYVWYLYDEFGYWGQGTQVTVSS	low polyreactivity
QVQLVESGGGLVQAGGSLRLICAASGRTFRYYTMGWYRQAPGKERELVAAISWRGGSTYYADSVKGRFTISRDNAKNTVYLQMNSLKPEDTAVYYCAAKRPKRYNEGYYWGQGTQVTVSS	high polyreactivity
QVQLVESGGGLVQAGGSLRLICAASGRTFTHNAMGWSRQAPGKERELVAGITSGCSTNYADSVKGRFTISRDNAKNTVYLQMNSLKPEDTAVYYCNKVFFWSRYKGYYYWGQGTQVTVSS	high polyreactivity
QVQLVESGGGLVQAGGSLRLICAASGRTFTYYDMGWYRQAPGKERELVAGITARGGSTYADSVKGRFTISRDNAKNTVYLQMNSLKPEDTAVYYCAADLYTSLDSTYDYWGQGTQVTVSS	low polyreactivity
QVQLVESGGGLVQAGGSLRLICAASGRTFVKNAMGWSRQAPGKERELVAAIDRGSRTNYADSVKGRFTISRDNAKNTVYLQMNSLKPEDTAVYYCATRYRVRDDQTGTWSIFGYWGQGTQVTVSS	high polyreactivity
QVQLVESGGGLVQAGGSLRLICAASGRTFYRNDMGWSRQAPGKERELVAAISGSGGTTYYADSVKGRFTISRYNAKNTVYLQMNSLNPEDTAVDYCAVDGNFFGEVRPYDYWGQGTQVTVSS	low polyreactivity
